Results published in paper PMC7917804.

Molecular target: poly(A)-binding protein (PABP), P11940
Assay: co-immunoprecipitation with anti-FLAG antibody, Western blot quantified with ImageJ
Conditions: chain shown with the change; HeLa cells; two independent experiments; parent: est. 1.0; read off a plot

Sequence of poly(A)-binding protein (PABP), P11940 (P11940 whole entry): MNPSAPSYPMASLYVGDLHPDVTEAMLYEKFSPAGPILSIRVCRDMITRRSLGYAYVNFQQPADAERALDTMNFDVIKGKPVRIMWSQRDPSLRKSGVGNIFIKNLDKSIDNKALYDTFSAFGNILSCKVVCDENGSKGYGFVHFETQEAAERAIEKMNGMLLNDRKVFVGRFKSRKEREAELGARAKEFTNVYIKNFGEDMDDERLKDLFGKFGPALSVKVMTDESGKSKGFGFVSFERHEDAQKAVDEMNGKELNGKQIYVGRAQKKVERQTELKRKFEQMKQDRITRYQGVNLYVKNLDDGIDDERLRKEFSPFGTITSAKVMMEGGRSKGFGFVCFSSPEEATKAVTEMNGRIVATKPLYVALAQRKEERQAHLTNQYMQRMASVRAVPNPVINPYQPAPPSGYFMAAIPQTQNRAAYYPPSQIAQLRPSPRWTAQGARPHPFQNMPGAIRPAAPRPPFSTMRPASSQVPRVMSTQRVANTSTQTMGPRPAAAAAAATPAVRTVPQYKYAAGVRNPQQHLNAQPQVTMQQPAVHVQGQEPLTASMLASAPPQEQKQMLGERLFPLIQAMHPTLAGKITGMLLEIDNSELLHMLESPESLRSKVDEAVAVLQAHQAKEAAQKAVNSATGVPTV

response: 1.4
B1: FLAG-HA-SBP (FHS)-tagged full-length TNRC6A, wild type, Q8NDV7-2 S1332D; S1346D (protein)
chain: MDADSASSSESERNITIMASGNTGGEKDGLRNSTGLGSQNKFVVGSSSNNVGHGSSTGPWGFSHGAIISTCQVSVDAPESKSESSNNRMNAWGTVSSSSNGGLNPSTLNSASNHGAWPVLENNGLALKGPVGSGSSGINIQCSTIGQMPNNQSINSKVSGGSTHGTWGSLQETCESEVSGTQKVSFSGQPQNITTEMTGPNNTTNFMTSSLPNSGSVQNNELPSSNTGAWRVSTMNHPQMQAPSGMNGTSLSHLSNGESKSGGSYGTTWGAYGSNYSGDKCSGPNGQANGDTVNATLMQPGVNGPMGTNFQVNTNKGGGVWESGAANSQSTSWGSGNGANSGGSRRGWGTPAQNTGTNLPSVEWNKLPSNQHSNDSANGNGKTFTNGWKSTEEEDQGSATSQTNEQSSVWAKTGGTVESDGSTESTGRLEEKGTGESQSRDRRKIDQHTLLQSIVNRTDLDPRVLSNSGWGQTPIKQNTAWDTETSPRGERKTDNGTEAWGSSATQTFNSGACIDKTSPNGNDTSSVSGWGDPKPALRWGDSKGSNCQGGWEDDSAATGMVKSNQWGNCKEEKAAWNDSQKNKQGWGDGQKSSQGWSVSASDNWGETSRNNHWGEANKKSSSGGSDSDRSVSGWNELGKTSSFTWGNNINPNNSSGWDESSKPTPSQGWGDPPKSNQSLGWGDSSKPVSSPDWNKQQDIVGSWGIPPATGKPPGTGWLGGPIPAPAKEEEPTGWEEPSPESIRRKMEIDDGTSAWGDPSKYNYKNVNMWNKNVPNGNSRSDQQAQVHQLLTPASAISNKEASSGSGWGEPWGEPSTPATTVDNGTSAWGKPIDSGPSWGEPIAAASSTSTWGSSSVGPQALSKSGPKSMQDGWCGDDMPLPGNRPTGWEEEEDVEIGMWNSNSSQELNSSLNWPPYTKKMSSKGLSGKKRRRERGMMKGGNKQEEAWINPFVKQFSNISFSRDSPEENVQSNKMDLSGGMLQDKRMEIDKHSLNIGDYNRTVGKGPGSRPQISKESSMERNPYFDKDGIVADESQNMQFMSSQSMKLPPSNSALPNQALGSIAGLGMQNLNSVRQNGNPSMFGVGNTAAQPRGMQQPPAQPLSSSQPNLRAQVPPPLLSPQVPVSLLKYAPNNGGLNPLFGPQQVAMLNQLSQLNQLSQISQLQRLLAQQQRAQSQRSVPSGNRPQQDQQGRPLSVQQQMMQQSRQLDPNLLVKQQTPPSQQQPLHQPAMKSFLDNVMPHTTPELQKGPSPINAFSNFPIGLNSNLNVNMDMNSIKEPQSRLRKWTTVDSISVNTSLDQNSSKHGAISSGFRLEESPFVPYDFMNSSTSPADPPGSIGDGWPRAKDPNGSSSVNWPPEFRPGEPWKGYPNIDPETDPYVTPGSVINNLSINTVREVDHLRDRNSGSSSSLNTTLPSTSAWSSIRASNYNVPLSSTAQSTSARNSDSKLTWSPGSVTNTSLAHELWKVPLPPKNITAPSRPPPGLTGQKPPLSTWDNSPLRIGGGWGNSDARYTPGSSWGESSSGRITNWLVLKNLTPQIDGSTLRTLCMQHGPLITFHLNLPHGNALVRYSSKEEVVKAQKSLHMCVLGNTTILAEFASEEEISRFFAQSQSLTPSPGWQSLGSSQSRLGSLDCSHSFSSRTDLNHWNGAGLSGTNCGDLHGTSLWGTPHYSTSLWGPPSSSDPRGISSPSPINAFLSVDHLGGGGESM
